Reference: IntAct's records for PubMed 12097473

B1: Kinesin-like protein KIF1B (Homo sapiens), O60333-3 (parent)
chain: MSGASVKVAVRVRPFNSRETSKESKCIIQMQGNSTSIINPKNPKEAPKSFSFDYSYWSHTSPEDPCFASQNRVYNDIGKEMLLHAFEGYNVCIFAYGQTGAGKSYTMMGKQEESQAGIIPQLCEELFEKINDNCNEEMSYSVEVSYMEIYCERVRDLLNPKNKGNLRVREHPLLGPYVEDLSKLAVTSYTDIADLMDAGNKARTVAATNMNETSSRSHAVFTIVFTQKKHDNETNLSTEKVSKISLVDLAGSERADSTGAKGTRLKEGANINKSLTTLGKVISALAEVSKKKKKTDFIPYRDSVLTWLLRENLGGNSRTAMVAALSPADINYDETLSTLRYADRAKQIKCNAVINEDPNAKLVRELKEEVTRLKDLLRAQGLGDIIDTSMGSLTSSPSSCSLSSQVGLTSVTSIQERIMSTPGGEEAIERLKESEKIIAELNETWEEKLRKTEAIRMEREALLAEMGVAIREDGGTLGVFSPKKTPHLVNLNEDPLMSECLLYYIKDGITRVGQADAERRQDIVLSGAHIKEEHCIFRSERSNSGEVIVTLEPCERSETYVNGKRVSQPVQLRSGNRIIMGKNHVFRFNHPEQARAEREKTPSAETPSEPVDWTFAQRELLEKQGIDMKQEMEKRLQEMEILYKKEKEEADLLLEQQRLDADSDSGDDSDKRSCEESWKLITSLREKLPPSKLQTIVKKCGLPSSGKKREPIKMYQIPQRRRLSKDSKWVTISDLKIQAVKEICYEVALNDFRHSRQEIEALAIVKMKELCAMYGKKDPNERDSWRAVARDVWDTVGVGDEKIEDVMATGKGSTDVDDLKVHIDKLEDILQEVKKQNNMKDEEIKVLRNKMLKMEKVLPLIGSQEQKSPGSHKAKEPVGAGVSSTSENNVSKGDNGELAKEERVSQLMNGDPAFRRGRLRWMRQEQIRFKNLQQQEITKQLRRQNVPHRFIPPENRKPRFPFKSNPKHRNSWSPGTHIIITEDEVIELRIPKDDEARKGNKEESQEKGGKGAFKDPQFPWGSQGMRSQDHIQVSKQHINNQQQPPQLRWRSNSLNNGQPKSTRCQASASAESLNSHSGHPTADVQTFQAKRHIHQHRQSYCNYNTGGQLEGNAATSYQKQTDKPSHCSQFVTPPRMRRQFSAPNLKAGRETTV

Variants of: B1
Conditions: with dlg1_rat Dlg1, Q62696

| effect of a mutation on the interaction | Variant |
| --- | --- |
| decreasing interaction | V1153A |

Variants of: B1
Conditions: with magi2_rat Magi2, O88382
Chain of magi2_rat Magi2, O88382 (O88382 whole entry): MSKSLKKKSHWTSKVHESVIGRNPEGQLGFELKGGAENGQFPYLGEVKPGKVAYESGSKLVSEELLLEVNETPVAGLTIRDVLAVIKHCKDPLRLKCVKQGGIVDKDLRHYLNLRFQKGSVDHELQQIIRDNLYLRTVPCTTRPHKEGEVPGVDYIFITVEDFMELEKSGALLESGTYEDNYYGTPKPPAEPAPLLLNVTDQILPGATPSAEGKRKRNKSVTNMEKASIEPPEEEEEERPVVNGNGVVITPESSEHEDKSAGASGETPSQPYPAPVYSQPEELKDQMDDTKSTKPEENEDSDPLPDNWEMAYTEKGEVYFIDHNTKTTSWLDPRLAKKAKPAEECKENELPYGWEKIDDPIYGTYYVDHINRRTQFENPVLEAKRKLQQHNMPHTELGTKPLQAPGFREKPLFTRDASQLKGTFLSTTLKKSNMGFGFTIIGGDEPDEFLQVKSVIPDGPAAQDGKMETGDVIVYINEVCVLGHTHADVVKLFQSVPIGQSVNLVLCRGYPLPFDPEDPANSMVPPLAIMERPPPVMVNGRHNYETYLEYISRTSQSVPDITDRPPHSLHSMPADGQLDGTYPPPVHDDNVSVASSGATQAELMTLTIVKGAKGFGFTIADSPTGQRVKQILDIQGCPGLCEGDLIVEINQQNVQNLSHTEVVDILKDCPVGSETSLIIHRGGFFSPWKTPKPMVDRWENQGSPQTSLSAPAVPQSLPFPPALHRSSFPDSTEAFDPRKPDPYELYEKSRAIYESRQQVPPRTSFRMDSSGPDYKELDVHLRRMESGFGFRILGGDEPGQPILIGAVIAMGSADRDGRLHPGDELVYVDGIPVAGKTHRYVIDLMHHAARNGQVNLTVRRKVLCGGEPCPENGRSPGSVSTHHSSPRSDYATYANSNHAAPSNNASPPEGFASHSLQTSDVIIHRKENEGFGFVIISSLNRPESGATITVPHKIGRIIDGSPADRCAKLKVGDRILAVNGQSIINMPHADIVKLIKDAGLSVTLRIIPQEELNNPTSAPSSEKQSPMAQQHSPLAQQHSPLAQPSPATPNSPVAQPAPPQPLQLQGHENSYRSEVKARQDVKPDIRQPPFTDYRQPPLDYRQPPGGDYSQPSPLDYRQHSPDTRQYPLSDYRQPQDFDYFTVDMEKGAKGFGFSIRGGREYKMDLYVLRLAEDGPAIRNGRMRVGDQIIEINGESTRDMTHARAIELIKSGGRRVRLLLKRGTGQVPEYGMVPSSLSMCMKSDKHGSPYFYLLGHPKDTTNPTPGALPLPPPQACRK

| effect of a mutation on the interaction | Variant |
| --- | --- |
| disrupting interaction | V1153A |

Variants of: B1
Conditions: with dlg1_human DLG1, Q12959
Chain of dlg1_human DLG1, Q12959 (Q12959 whole entry, looked up): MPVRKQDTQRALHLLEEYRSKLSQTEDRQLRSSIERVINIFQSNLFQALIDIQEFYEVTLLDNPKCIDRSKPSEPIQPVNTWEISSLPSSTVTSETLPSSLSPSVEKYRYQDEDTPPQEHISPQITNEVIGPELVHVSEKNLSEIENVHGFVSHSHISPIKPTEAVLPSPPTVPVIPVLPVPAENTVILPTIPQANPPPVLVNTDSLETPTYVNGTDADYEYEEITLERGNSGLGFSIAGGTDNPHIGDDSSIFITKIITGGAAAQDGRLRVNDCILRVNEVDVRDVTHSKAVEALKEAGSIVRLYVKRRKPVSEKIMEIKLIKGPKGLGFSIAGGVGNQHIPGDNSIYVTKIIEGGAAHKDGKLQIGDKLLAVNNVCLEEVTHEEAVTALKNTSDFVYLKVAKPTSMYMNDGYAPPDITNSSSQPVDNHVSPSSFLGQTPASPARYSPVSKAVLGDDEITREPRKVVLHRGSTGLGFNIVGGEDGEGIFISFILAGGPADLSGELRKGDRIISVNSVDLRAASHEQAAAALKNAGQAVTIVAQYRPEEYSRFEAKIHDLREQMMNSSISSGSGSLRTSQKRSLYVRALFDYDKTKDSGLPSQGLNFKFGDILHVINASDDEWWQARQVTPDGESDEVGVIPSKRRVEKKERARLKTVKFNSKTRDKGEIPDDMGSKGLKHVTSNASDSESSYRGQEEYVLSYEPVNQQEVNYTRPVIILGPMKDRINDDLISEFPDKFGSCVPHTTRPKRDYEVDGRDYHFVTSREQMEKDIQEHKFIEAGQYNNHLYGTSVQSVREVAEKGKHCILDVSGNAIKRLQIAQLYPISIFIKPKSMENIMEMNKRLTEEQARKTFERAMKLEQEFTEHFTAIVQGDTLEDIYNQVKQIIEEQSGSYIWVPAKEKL

| effect of a mutation on the interaction | Variant |
| --- | --- |
| decreasing interaction | V1153A |

Variants of: B1
Conditions: with dlg2_rat Dlg2, Q63622
Chain of dlg2_rat Dlg2, Q63622 (Q63622 whole entry, looked up): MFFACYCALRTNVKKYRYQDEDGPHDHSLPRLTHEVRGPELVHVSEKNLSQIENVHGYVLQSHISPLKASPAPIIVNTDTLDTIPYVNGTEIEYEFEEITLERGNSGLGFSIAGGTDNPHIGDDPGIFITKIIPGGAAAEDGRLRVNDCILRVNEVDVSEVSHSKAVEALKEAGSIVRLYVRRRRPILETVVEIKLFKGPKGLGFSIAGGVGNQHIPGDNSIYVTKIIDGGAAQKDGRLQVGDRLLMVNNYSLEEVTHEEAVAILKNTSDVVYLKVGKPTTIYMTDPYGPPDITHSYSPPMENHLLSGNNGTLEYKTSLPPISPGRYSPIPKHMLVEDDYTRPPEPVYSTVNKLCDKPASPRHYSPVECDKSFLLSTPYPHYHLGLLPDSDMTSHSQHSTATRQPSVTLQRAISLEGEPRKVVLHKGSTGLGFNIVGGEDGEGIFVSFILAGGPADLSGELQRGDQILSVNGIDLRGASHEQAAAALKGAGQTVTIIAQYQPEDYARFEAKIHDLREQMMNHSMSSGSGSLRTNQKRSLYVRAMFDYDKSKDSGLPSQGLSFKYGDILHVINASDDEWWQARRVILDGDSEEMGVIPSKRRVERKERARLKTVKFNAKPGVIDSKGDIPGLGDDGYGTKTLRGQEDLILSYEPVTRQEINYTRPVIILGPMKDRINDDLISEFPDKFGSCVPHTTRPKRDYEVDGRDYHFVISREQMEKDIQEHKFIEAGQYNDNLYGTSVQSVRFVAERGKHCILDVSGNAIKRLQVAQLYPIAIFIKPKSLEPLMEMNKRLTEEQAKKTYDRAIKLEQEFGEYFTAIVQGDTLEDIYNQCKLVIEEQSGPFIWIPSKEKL

| effect of a mutation on the interaction | Variant |
| --- | --- |
| disrupting interaction | V1153A |

Variants of: B1
Conditions: with magi1_human MAGI1, Q96QZ7
Chain of magi1_human MAGI1, Q96QZ7 (Q96QZ7 whole entry): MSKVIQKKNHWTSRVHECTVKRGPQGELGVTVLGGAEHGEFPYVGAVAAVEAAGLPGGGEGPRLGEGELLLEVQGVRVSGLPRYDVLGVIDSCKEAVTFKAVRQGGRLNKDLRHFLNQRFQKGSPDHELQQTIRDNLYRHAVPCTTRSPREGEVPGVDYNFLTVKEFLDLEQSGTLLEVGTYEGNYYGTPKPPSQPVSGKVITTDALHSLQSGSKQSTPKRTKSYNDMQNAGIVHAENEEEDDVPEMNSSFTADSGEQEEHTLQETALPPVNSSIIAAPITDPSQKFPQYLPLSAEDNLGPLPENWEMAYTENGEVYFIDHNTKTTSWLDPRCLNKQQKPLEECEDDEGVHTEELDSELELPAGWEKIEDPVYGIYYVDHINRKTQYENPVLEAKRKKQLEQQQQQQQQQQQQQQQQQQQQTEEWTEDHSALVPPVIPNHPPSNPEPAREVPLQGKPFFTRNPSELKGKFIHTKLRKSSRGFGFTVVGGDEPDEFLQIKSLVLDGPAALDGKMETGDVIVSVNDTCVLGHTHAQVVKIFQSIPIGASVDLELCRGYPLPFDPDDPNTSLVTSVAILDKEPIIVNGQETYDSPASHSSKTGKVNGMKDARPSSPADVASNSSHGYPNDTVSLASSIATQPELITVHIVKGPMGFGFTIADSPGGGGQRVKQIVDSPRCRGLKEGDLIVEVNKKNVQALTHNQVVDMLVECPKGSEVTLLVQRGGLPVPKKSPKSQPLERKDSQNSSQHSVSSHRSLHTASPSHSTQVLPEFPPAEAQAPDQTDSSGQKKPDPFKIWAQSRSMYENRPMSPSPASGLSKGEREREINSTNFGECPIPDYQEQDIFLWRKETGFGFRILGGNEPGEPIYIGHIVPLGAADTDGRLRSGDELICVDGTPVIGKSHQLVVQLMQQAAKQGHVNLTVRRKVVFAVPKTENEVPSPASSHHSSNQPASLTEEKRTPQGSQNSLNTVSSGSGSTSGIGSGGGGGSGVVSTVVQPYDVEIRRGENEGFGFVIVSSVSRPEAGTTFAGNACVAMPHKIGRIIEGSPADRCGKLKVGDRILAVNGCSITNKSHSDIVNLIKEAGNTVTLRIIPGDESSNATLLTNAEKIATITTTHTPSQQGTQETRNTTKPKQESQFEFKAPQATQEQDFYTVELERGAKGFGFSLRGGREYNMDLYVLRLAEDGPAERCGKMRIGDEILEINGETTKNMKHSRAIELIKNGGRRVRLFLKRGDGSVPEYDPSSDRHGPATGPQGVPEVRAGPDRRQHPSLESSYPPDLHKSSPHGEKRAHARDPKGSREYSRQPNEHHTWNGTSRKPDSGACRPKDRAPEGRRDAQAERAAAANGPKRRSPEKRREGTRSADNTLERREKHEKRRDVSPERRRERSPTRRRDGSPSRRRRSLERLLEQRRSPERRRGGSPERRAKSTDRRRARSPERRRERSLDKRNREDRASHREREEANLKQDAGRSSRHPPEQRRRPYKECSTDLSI

| effect of a mutation on the interaction | Variant |
| --- | --- |
| disrupting interaction | V1153A |
